Experimental data from publication PMC10359635, “Cas1–Cas2 physically and functionally interacts with DnaK to modulate CRISPR Adaptation”.

Tests used:
DnaK = DnaK (Escherichia coli (K-12 MG1655), UniProt P0A6Y8 1-638); assay: EMSA; mixed with Cy5-ssDNA; EMSA: 20 nM Cy5 fork, 20 mM Tris pH 8.0, 0.1 mg/ml BSA, 7% glycerol (25% after DnaK addition); proteins diluted in 20 mM Tris pH 8.0, 100 mM NaCl, 1 mM DTT; Cas1 preincubated 5 min, then 25 min at 37 C; 5% native acrylamide gel; conditions: protein: recombinant; tags: N-terminal 6xHis; label: 5'-Cy5 on MW14; fork: 24 bp duplex 1:2-25 2:27-50; 3' arm of strand 1 25 nt, 5' arm of strand 2 26 nt; 1 nt 5' overhang on strand 1
Cas1 = target: T1, Cas1 (Escherichia coli, UniProt Q46896 1-305); assay: EMSA; mixed with Cy5-ssDNA decoy; aggregates in wells at highest Cas1; EMSA: 20 nM Cy5 fork, 20 mM Tris pH 8.0, 0.1 mg/ml BSA, 7% glycerol (25% after DnaK addition); proteins diluted in 20 mM Tris pH 8.0, 100 mM NaCl, 1 mM DTT; Cas1 preincubated 5 min, then 25 min at 37 C; 5% native acrylamide gel; conditions: protein: recombinant; tags: C-terminal Strep-tag II; chain copies: 2; label: 5'-Cy5 on MW14; fork: 24 bp duplex 1:2-25 2:27-50; 3' arm of strand 1 25 nt, 5' arm of strand 2 26 nt; 1 nt 5' overhang on strand 1
T1 sequence: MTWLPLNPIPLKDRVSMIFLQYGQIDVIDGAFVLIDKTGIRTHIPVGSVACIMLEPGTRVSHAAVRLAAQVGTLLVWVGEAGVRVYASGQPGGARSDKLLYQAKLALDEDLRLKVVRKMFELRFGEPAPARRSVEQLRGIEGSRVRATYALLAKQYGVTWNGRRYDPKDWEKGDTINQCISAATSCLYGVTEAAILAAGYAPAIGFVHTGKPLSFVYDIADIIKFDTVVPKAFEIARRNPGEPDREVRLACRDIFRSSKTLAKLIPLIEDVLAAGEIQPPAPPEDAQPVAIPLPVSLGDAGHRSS

DnaK S427P = DnaK S427P (Escherichia coli (K-12 MG1655), UniProt P0A6Y8 1-638, S427P); assay: EMSA; EMSA: 20 nM Cy5 fork, 20 mM Tris pH 8.0, 0.1 mg/ml BSA, 7% glycerol (25% after DnaK addition); proteins diluted in 20 mM Tris pH 8.0, 100 mM NaCl, 1 mM DTT; Cas1 preincubated 5 min, then 25 min at 37 C; 5% native acrylamide gel; conditions: protein: recombinant; tags: N-terminal 6xHis; label: 5'-Cy5 on MW14; fork: 24 bp duplex 1:2-25 2:27-50; 3' arm of strand 1 25 nt, 5' arm of strand 2 26 nt; 1 nt 5' overhang on strand 1

B1: Fork (flayed duplex MW12/MW14) (dsDNA)
DNA 1: GTCGGATCCTCTAGACAGCTCCATGATCACTGGCACTGGTAGAATTCGGC
DNA 2: CAACGTCATAGACGATTACATTGCTACATGGAGCTGTCTAGAGGATCCGA
DnaK
  binding result: no binding
Cas1
  binding result: binds
DnaK S427P
  binding result: no binding
